Changes are numbered by the printed parent chain.
T1: human Trophoblast cell surface antigen 2 (TROP2) (human, UniProt P09758 27-274, limits assumed)
T1 construct: Analyte in the SPR experiments and immunogen; also called human TROP2
T1 sequence: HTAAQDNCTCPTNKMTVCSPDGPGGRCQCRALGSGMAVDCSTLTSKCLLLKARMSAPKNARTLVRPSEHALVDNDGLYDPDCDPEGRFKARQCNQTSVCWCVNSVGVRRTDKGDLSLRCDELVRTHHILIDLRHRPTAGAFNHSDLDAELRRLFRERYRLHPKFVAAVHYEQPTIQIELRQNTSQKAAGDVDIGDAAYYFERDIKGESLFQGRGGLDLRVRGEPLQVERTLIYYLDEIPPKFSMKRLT

T2: TROP2 expressed on human cancer cell lines (human, UniProt P09758 27-323)
T2 sequence: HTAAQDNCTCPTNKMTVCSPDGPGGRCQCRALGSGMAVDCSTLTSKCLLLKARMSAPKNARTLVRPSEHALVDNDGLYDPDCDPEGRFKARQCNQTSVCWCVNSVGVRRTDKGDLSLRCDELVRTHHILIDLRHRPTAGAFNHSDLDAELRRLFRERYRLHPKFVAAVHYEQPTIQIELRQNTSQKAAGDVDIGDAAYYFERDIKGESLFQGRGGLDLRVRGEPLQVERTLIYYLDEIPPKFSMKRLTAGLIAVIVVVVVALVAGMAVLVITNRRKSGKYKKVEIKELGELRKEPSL

B1: biosimilar of the anti-TROP2 antibody sacituzumab (antibody, INN chains, looked up, V domains shown)
VH: QVQLQQSGSELKKPGASVKVSCKASGYTFTNYGMNWVKQAPGQGLKWMGWINTYTGEPTYTDDFKGRFAFSLDTSVSTAYLQISSLKADDTAVYFCARGGFGSSYWYFDVWGQGSLVTVSS
VL: DIQLTQSPSSLSASVGDRVSITCKASQDVSIAVAWYQQKPGKAPKLLIYSASYRYTGVPDRFSGSGSGTDFTLTISSLQPEDFAVYYCQQHYITPLTFGAGTKVEIKR
modifications: biosimilar
B2: HC1/LC5 (antibody, human IgG1, kappa, V domains shown)
VH: QVQLVQSGAEVKKPGASVKVSCKASGYTFTDYSINWVRQAPGQGLEWMGVISTYYGDASYNQKFKGRVTMTTDTSTSTAYMELRSLRSDDTAVYYCARYGDGYNQFDYWGQGTMVTVSS
VL: DIQMTQSPSSLSASVGDRVTITCRVSESVDSYGNNFMHWYQQKPGKAPKLLIYRASNLESGVPSRFSGSGSGTDFTFTISSLQPEDIATYYCQQSYEDPYTFGGGTKLEIKR
notes: Humanized anti-TROP2 antibody; also called DP002-HC1LC5
B3: HC4/LC5 (antibody, human IgG1, kappa, V domains shown)
VH: B2 VH with A16S, M70I, T72A, T74E, R84S, D89E, M114L
VL: B2 VL
notes: Humanized anti-TROP2 antibody; also called DP002-HC4LC5; DP002HC4LC5
B4: HC1/LC1 (antibody, human IgG1, kappa, V domains shown)
VH: B2 VH
VL: DIVMTQSPDSLAVSLGERATINCRVSESVDSYGNNFMHWYQQKPGQPPKLLIYRASNLESGVPDRFSGSGSGTDFTLTISSLQAEDVAVYYCQQSYEDPYTFGQGTKLEIKR
notes: Humanized anti-TROP2 antibody; also called DP002-HC1LC1
B5: anti-TROP2 antibody 1B3 (antibody, V domains shown)
VH: QVQLQQSGAELVRPGVSVKISCKGSGYTFTDYSINWVKQSHAKSLEWIGVISTYYGDASYNQKFKGKATMTVDKSSSTAYMELARLTSEDSAIYYCARYGDGYNQFDYWGQGTTLTVSS
VL: DIVLTQSPASLAVSLGQRATISCRVSESVDSYGNNFMHWYQQKPGQPPKLLIYRASNLESGVPARFSGSGSGTDFTLTINPMEADDVATYYCQQSYEDPYTFGGGTKLEIK
notes: Mouse anti-human TROP2 hybridoma antibody
B6: anti-TROP2 antibody 15A10 (antibody, V domains shown)
VH: EVQLEQSGPGLVQPSQSLSITCTVSGFSLTRYGVHWVRQSPGRSLEWLGVIWSGGNTDYNAAFISRLTITKDNSKSQVFFKMNSLQPNDTGVYYCAREDRYVGEFAYWGQGTLVTVSA
VL: B5 VL with P8T, V25A, N35S, M37I, V62I, G72R, M82V, Y96N, Y100R
notes: as for B5
B7: anti-TROP2 antibody 15D9 (antibody, V domains shown)
VH: QVQLQQSGAELVRPGVSVKISCKGSGYTFTDYSIHWVKQSHAKSLEWIGVISSYYGDATYNQKFKGKATMTVDKSSSTAYMELARLTSEDSAIYYCALLGAYNYFDYWGQGTTLTVSS
VL: B5 VL with V25A, N35S, I52V, V62I, G72R, M82V, Y100P
notes: as for B5
B8: anti-TROP2 antibody 17D1 (antibody, V domains shown)
VH: B7 VH with V50L, S53T, N61T
VL: B5 VL with V25A, N35S, I52V, V62I, G72R, M82V, V87I, Y100P
notes: as for B5
B9: anti-TROP2 antibody 17B6 (antibody, V domains shown)
VH: QVQLQQSGAELVRPGVSVKISCKGSGYTFTDYGMNWVKQSHAKSLEWIGVISTFYGDANYNQKFKGKATMTVDKSSSTAYMELARLTSEDSAIYYCARRGNYDSMDYWGQGTSVTVSS
VL: B5 VL with A9V, S10F, V25A, N35S, V62I, G72R, M82V, A88E, Y100P, K111E
notes: as for B5
B10: HC5/LC1 (antibody, human IgG1, kappa, V domains shown)
VH: EVQLVQSGAEVKKPGESLKISCKGSGYTFTDYSINWVRQMPGKGLEWMGVISTYYGDASYNQKFKGQVTISADKSISTAYLQWSSLKASDTAMYYCARYGDGYNQFDYWGQGTLVTVSS
VL: B4 VL
notes: Humanized anti-TROP2 antibody
B11: HC5/LC4 (antibody, human IgG1, kappa, V domains shown)
VH: B10 VH
VL: EIVLTQSPATLSLSPGERATLSCRVSESVDSYGNNFMHWYQQKPGQAPRLLIYRASNLESGIPARFSGSGSGTDFTLTISSLEPEDFAVYYCQQSYEDPYTFGGGTKVEIKR
notes: Humanized anti-TROP2 antibody

Columns and labels:
[1] = target: human Trophoblast cell surface antigen 2 (TROP2) (human) (UniProt P09758); assay: SPR, TROP2 as analyte
[2] = target: T1, human Trophoblast cell surface antigen …; assay: SPR, TROP2 as analyte
[3] = target: T1, human Trophoblast cell surface antigen …; assay: SPR affinity ranking, human TROP2
[4] = target: T2, TROP2 expressed on human cancer cell …; assay: cell-based or functional assay
[5] = target: T2, TROP2 expressed on human cancer cell …; assay: cell-based or functional assay; remark: listed apart in the source
[6] = target: T2, TROP2 expressed on human cancer cell …; assay: flow cytometry of SKBR3 cells after overnight incubation with the antibody pre-mixed with pHAb-labelled secondary antibody (internalization assay); x axis pHAb-A, y axis Count
Protocol: FACS experiments were performed to verify that antibodies 1B3, 15D9, 15A10, 17B6, and 17D1 were internalized by SKBR3 cells. SKBR3 is a TROP2-expressing human breast carcinoma cell line. Briefly, 1.2×10⁵ SKBR3 cells were seeded into each 12-well plates and cultured overnight. 300 μL of 20 nM control antibody, 1B3, 15D9, 15A10, 17B6, or 17D1 (in DMEM-10) were mixed with 300 μL 60 nM pHAb-labelled secondary antibody for 15 minutes at room temperature in the dark. The labeled antibodies mixtures were added to the SKBR3 cells and incubated overnight. Following overnight incubation, the SKBR3 cells were trypsinized, washed twice with 1% BSA/PBS, and analyzed via flow cytometry.

Row | Binder | Kd [3] | koff [3] | kon [3] | binding result [6] | other results
1 | B1 | – | – | – | – | Kd [1]: 0.4 nM; koff [1]: 0.000204 s⁻¹; kon [1]: 511000 M⁻¹ s⁻¹
2 | B2 | 0.107 nM | 0.000149 s⁻¹ | 1.39e+06 M⁻¹ s⁻¹ | – | Kd [2]: 0.0577 nM; koff [2]: 0.000104 s⁻¹; kon [2]: 1.81e+06 M⁻¹ s⁻¹
3 | B3 | 0.0801 nM | 0.000138 s⁻¹ | 1.72e+06 M⁻¹ s⁻¹ | – | Kd [2]: 0.0184 nM; koff [2]: 4.05e-05 s⁻¹; kon [2]: 2.2e+06 M⁻¹ s⁻¹; IC50 (nM), in vitro cytotoxicity, BxPC-3 cells [4]: > 100 nM; IC50 (nM), in vitro cytotoxicity, HCC1954 cells [4]: > 100 nM; IC50 (nM), in vitro cytotoxicity, NCI-N87 cells [4]: > 100 nM
4 | B4 | 0.0645 nM | 0.000105 s⁻¹ | 1.63e+06 M⁻¹ s⁻¹ | – | Kd [2]: 0.0662 nM; koff [2]: 0.00013 s⁻¹; kon [2]: 1.97e+06 M⁻¹ s⁻¹; IC50 (nM), in vitro cytotoxicity, HCC38 cells [5]: > 100 nM; IC50 (nM), in vitro cytotoxicity, MDA-MB-468 cells [5]: > 100 nM
5 | B5 | – | – | – | binds | –
6 | B6 | – | – | – | binds | –
7 | B7 | – | – | – | binds | –
8 | B8 | – | – | – | binds | –
9 | B9 | – | – | – | binds | –
10 | B10 | 0.147 nM | 0.000235 s⁻¹ | 1.6e+06 M⁻¹ s⁻¹ | – | –
11 | B11 | 0.22 nM | 0.000299 s⁻¹ | 1.36e+06 M⁻¹ s⁻¹ | – | –

— US20220153862A1 (CSPC MEGALITH BIOPHARMACEUTICAL, published 2022)
